According to the supplement of paper PMC5998384:

Assays:
HeLa Kyoto [1] = assay: solubility in G1/S (NP-40 vs SDS abundance) (log2 ratio); higher = more soluble; details: cell cycle stage: G1/S
HeLa Kyoto [2] = assay: melting temperature (median over replicates), in situ; higher = more thermally stable
HeLa Kyoto [3] = assay: solubility change mitosis vs G1/S (difference of NP-40 vs SDS log2 ratios) (log2 ratio difference); higher = more soluble in mitosis
HeLa Kyoto [4] = assay: thermal stability score vs G1/S (z-score of summed log2 fold changes over temperatures); higher = more thermally stable than in G1/S
[5] = cell cycle stage: early G1 (4.5 h after nocodazole release)
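Throughout, for melting temperature (median over replicates), in situ: HeLa Kyoto cells synchronized by double thymidine or nocodazole block, proteins quantified by TMT10plex mass spectrometry, three independent biological replicates.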
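Throughout, for solubility change mitosis vs G1/S (difference of NP-40 vs SDS log2 ratios): synchronized HeLa Kyoto cells (double thymidine block for G1/S, nocodazole release for mitosis), protein amounts in NP-40 versus SDS lysates quantified by mass spectrometry, three biological replicates.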
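Throughout, for solubility in G1/S (NP-40 vs SDS abundance): HeLa Kyoto cells arrested at G1/S by double thymidine block, proteins quantified by TMT10plex mass spectrometry in mild NP-40 versus SDS extracts, three biological replicates.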
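Throughout, for thermal stability score vs G1/S (z-score of summed log2 fold changes over temperatures): synchronized HeLa Kyoto cells, proteins quantified by TMT10plex mass spectrometry, three biological replicates, mitosis taken 0.5 h after nocodazole release, G1/S directly after double thymidine block.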

| Substance | solubility in G1/S (log2) (HeLa Kyoto [1]) | melting temperature (HeLa Kyoto [2]; cell cycle stage: G1/S) [°C] | melting temperature (HeLa Kyoto [2]; cell cycle stage: mitosis) [°C] | solubility change mitosis (log2) (HeLa Kyoto [3]) | thermal stability score (HeLa Kyoto [4]; [5]) | thermal stability score (HeLa Kyoto [4]; cell cycle stage: mitosis) |
| --- | --- | --- | --- | --- | --- | --- |
| MLSVASRSGPFAPVLSATSRGVAGALRPLVQATVPATPEQPVLDLKRPFLSRESLSGQAVRRPLVASVGLNVPASVCYSHTDIKVPDFSEYRRLEVLDSTKSSRESSEARKGFSYLVTGVTTVGVAYAAKNAVTQFVSSMSASADVLALAKIEIKLSDIPEGKNMAFKWRGKPLFVRHRTQKEIEQEAAVELSQLRDPQHDLDRVKKPEWVILIGVCTHLGCVPIANAGDFGGYYCPCHGSHYDASGRIRLGPAPLNLEVPTYEFTSDDMVIVG [UQCRFS1] | 0.119 | 55.6 | 55.5 | -0.113 | -1.93 | -2.28 |
| NUP214 | -0.301 | 50.5 | 49.8 | 0.0567 | -1.39 | -1.03 |
| MSLRIDVDTNFPECVVDAGKVTLGTQQRQEMDPRLREKQNEIILRAVCALLNSGGGIIKAEIENKGYNYERHGVGLDVPPIFRSHLDKMQKENHFLIFVKSWNTEAGVPLATLCSNLYHRERTSTDVMDSQEALAFLKCRTQTPTNINVSNSLGPQAAQGSVQYEGNINVSAAALFDRKRLQYLEKLNLPESTHVEFVMFSTDVSHCVKDRLPKCVSAFANTEGGYVFFGVHDETCQVIGCEKEKIDLTSLRASIDGCIKKLPVHHFCTQRPEIKYVLNFLEVHDKGALRGYVCAIKVEKFCCAVFAKVPSSWQVKDNRVRQLPTREWTAWMMEADPDLSRCPEMVLQLSLSSATPRSKPVCIHKNSECLKEQQKRYFPVFSDRVVYTPESLYKELFSQHKGLRDLINTEMRPFSQGILIFSQSWAVDLGLQEKQGVICDALLISQNNTPILYTIFSKWDAGCKGYSMIVAYSLKQKLVNKGGYTGRLCITPLVCVLNSDRKAQSVYSSYLQIYPESYNFMTPQHMEALLQSLVIVLLGFKSFLSEELGSEVLNLLTNKQYELLSKNLRKTRELFVHGLPGSGKTILALRIMEKIRNVFHCEPANILYICENQPLKKLVSFSKKNICQPVTRKTFMKNNFEHIQHIIIDDAQNFRTEDGDWYGKAKFITQTARDGPGVLWIFLDYFQTYHLSCSGLPPPSDQYPREEINRVVRNAGPIANYLQQVMQEARQNPPPNLPPGSLVMLYEPKWAQGVPGNLEIIEDLNLEEILIYVANKCRFLLRNGYSPKDIAVLFTKASEVEKYKDRLLTAMRKRKLSQLHEESDLLLQIGDASDVLTDHIVLDSVCRFSGLERNIVFGINPGVAPPAGAYNLLLCLASRAKRHLYILKASV [SLFN5] | -0.0689 | 48.5 | 49.4 | -0.0585 | 1.54 | 2.13 |
| MESESESGAAADTPPLETLSFHGDEEIIEVVELDPGPPDPDDLAQEMEDVDFEEEEEEEGNEEGWVLEPQEGVVGSMEGPDDSEVTFALHSASVFCVSLDPKTNTLAVTGGEDDKAFVWRLSDGELLFECAGHKDSVTCAGFSHDSTLVATGDMSGLLKVWQVDTKEEVWSFEAGDLEWMEWHPRAPVLLAGTADGNTWMWKVPNGDCKTFQGPNCPATCGRVLPDGKRAVVGYEDGTIRIWDLKQGSPIHVLKGTEGHQGPLTCVAANQDGSLILTGSVDCQAKLVSATTGKVVGVFRPETVASQPSLGEGEESESNSVESLGFCSVMPLAAVGYLDGTLAIYDLATQTLRHQCQHQSGIVQLLWEAGTAVVYTCSLDGIVRLWDARTGRLLTDYRGHTAEILDFALSKDASLVVTTSGDHKAKVFCVQRPDR [AAMP] | -0.15 | 51.3 | 51.6 | -0.112 | -1.15 | -3.66 |
| MRLLPLAPGRLRRGSPRHLPSCSPALLLLVLGGCLGVFGVAAGTRRPNVVLLLTDDQDEVLGGMTPLKKTKALIGEMGMTFSSAYVPSALCCPSRASILTGKYPHNHHVVNNTLEGNCSSKSWQKIQEPNTFPAILRSMCGYQTFFAGKYLNEYGAPDAGGLEHVPLGWSYWYALEKNSKYYNYTLSINGKARKHGENYSVDYLTDVLANVSLDFLDYKSNFEPFFMMIATPAPHSPWTAAPQYQKAFQNVFAPRNKNFNIHGTNKHWLIRQAKTPMTNSSIQFLDNAFRKRWQTLLSVDDLVEKLVKRLEFTGELNNTYIFYTSDNGYHTGQFSLPIDKRQLYEFDIKVPLLVRGPGIKPNQTSKMLVANIDLGPTILDIAGYDLNKTQMDGMSLLPILRGASNLTWRSDVLVEYQGEGRNVTDPTCPSLSPGVSQCFPDCVCEDAYNNTYACVRTMSALWNLQYCEFDDQEVFVEVYNLTADPDQITNIAKTIDPELLGKMNYRLMMLQSCSGPTCRTPGVFDPGYRFDPRLMFSNRGSVRTRRFSKHLL [GNS] | 0.471 | 57.1 | 57.6 | 0.0867 | -1.62 | -1.58 |
